Laboratory results as given in US20030170252A1, “Antibody compositions specific for p33QIK and p63Krs1 polypeptides and uses thereof” (priority 2000, published 2003).

How the values were obtained:
p33^QIK = assay: Phosphatase treatment of immunoprecipitated p33^QIK, in-gel kinase readout; type: biochemical, mouse; details: immune complexes from quiescent or osmotic-stressed quiescent cells; 0.1 unit PP1, 30° C., 30 min
Procedure: NIH3T3 cultures were synchronized in quiescent state by serum starvation for 48 hr (G0), followed by treatment with 300 mM NaCl (G0/NaCl) for 2 hr. p33^QIK in 10 μg of cytosolic lysates (S20) were immunoprecipitated by Ab-KQ (IP), followed by incubation of the immune complexes with 0.1 unit of PP1 (Ps) (lanes 2, 3, 5 and 6) in phosphatase buffer (50 mM Tris-HCl, pH 7.0, 0.1 mM EDTA, 5 mM dithiothreitol, 0.01% Brij 35, 2 mM MnCl2) in the presence of 10 mM Na3VO4 and 50 mM NaF (Ps+I)(lanes 3 and 6) at 30° C. for 30 min. The kinase activity of p33^QIK in the immune complexes was determined by the in-gel kinase assay using MBP as a substrate. Bar indicates p33^QIK.
(§1) MBP (BRL/GIBCO, Grand Island, N.Y.) was used as a substrate in the assay and the in-gel kinase assay was performed as previously described (Wang et al., 1992). Briefly, 10% SDS-polyacrylamide gel (SDS-PAG) was copolymerized with 0.4 mg/ml MBP. Cellular proteins were resolved in the MBP-immobilized SDS-PAG, followed by rinsing the gel with 20% isopropanol in buffer B (100 mM Tris, pH 8, 5 mM β-mercaptoethanol). The gel was denatured in buffer B supplemented with 6 M guanidine-HCl and renatured with buffer B supplemented with 0.04% Tween 40 (Kameshita and Fujisawa, 1989). […] Protein kinases which phosphorylated MBP in the gel were detected by autoradiography of the [γ^32P]-labeled MBP. […]

[1] = tested on: p63^Krsl, p35, and p33^QIK; assay: Caspase-3 treatment of Ab-KQ immune complexes, in-gel kinase readout; type: biochemical, mouse; details: 0.2 μg Caspase-3, 37° C., 30 min
Procedure: Both p63^Krsl and p33^QIK in 10 μg of cytosolic lysates (S20) were immunoprecipitated by Ab-KQ (lanes 2 to 4 and 6 to 8), followed by reatment with 0.2 μg Caspase-3 (C)(lanes 3, 4, 7 and 8) in the presence of 5 μM caspase inhibitor Z-D-CH2-DCB (C+I)(lanes 4 and 8) at 37° C. for 30 min. The kinase activities of p63^Krsl, p35, and p33^QIK in 5 μg of S20 (lanes 1 and 5) and in the immune complexes were determined by the in-gel kinase assay using MBP as a substrate. Bars indicate p63^Krsl p35, and p33^QIK.
as §1, with “1989). Kinase reaction was carried out by incubating the gel with kinase buffer (20 Mm Tris, pH 7.2, 10 mM MgCl2, 15 mM β-glycerolphosphate) supplemented with 50 μM γATP and 50 μCi of [γ-^32P]ATP at 22° C. for 30 min.” for “1989).”

| Molecule | kinase activity of activated p33^QIK after phosphatase treatment (p33^QIK) | kinase activities of p63^Krsl, p35 and p33^QIK in immune complexes ([1]; immune complexes from STSP-treated cells) | kinase activity of p33^QIK in immune complexes ([1]; p33^QIK isolated from osmotic-stressed quiescent or growing cultures) |
| --- | --- | --- | --- |
| Lambda phosphatase: Lambda protein phosphatase purchased from NE BioLabs (protein) MRYYEKIDGSKYRNIWVVGDLHGCYTNLMNKLDTIGFDNKKDLLISVGDLVDRGAENVECLELITFPWFRAVRGNHEQMMIDGLSERGNVNHWLLNGGGWFFNLDYDKEILAKALAHKADELPLIIELVSKDKKYVICHADYPFDEYEFGKPVDHQQVIWNRERISNSQNGIVKEIKGADTFIFGHTPAVKPLKFANQMYIDTGAVFCGNLTLIQVQGEGA | A similar result was obtained | – | – |
| caspase-3: Recombinant human Caspase-3 purchased from Alexis Biochemicals (protein) SGISLDNSYKMDYPEMGLCIIINNKNFHKSTGMTSRSGTDVDAANLRETFRNLKYEVRNKNDLTREEIVELMRDVSKEDHSKRSSFVCVLLSHGEEGIIFGTNGPVDLKKITNFFRGDRCRSLTGKPKLFIIQACRGTELDCGIETDSGVDDDMACHKIPVEADFLYAYSTAPGYYSWRNSKDGSWFIQSLCAMLKQYADKLEFMHILTRVNRKVATEFESFSFDATFHAKKQIPCIVSMLTKELYFYH | – | both the kinase activities of p63^Krsl and p35 decreased in correlation with an increased p33^QIK activity | no change was detected in the kinase activity of p33^QIK |
